From patent US20040180354A1 (MANNKIND, published 2004) come the findings set out here.

The target of assay [1] is T1, HLA-A2.1 (HLA-A*0201) on the surface of T2 cells (human).
T1 construct: MHC class I molecule on T2 cells
Put plainly: T2 cell HLA-A2.1 stabilisation, flow cytometry with FITC anti-HLA A2, A28. (In general: In flow cytometry, cells or beads pass a laser one at a time.)

The target in assay [2] is T1, HLA-A2.1 (HLA-A*0201) on the surface of …. Put plainly: HLA-A2 binding assay, FACS profiles (T2 cells).
For assay [3] the target is unchanged. Kind of assay: HLA-A2 binding assay, FACS profiles (T2 cells); the weaker of the two 9-mers.
The target is the same in assay [4]. Kind of assay: T2 cell HLA-A*0201 stabilisation, flow cytometry.

Consider KASEKIFYV (also called 15) [SSX-2 41-49, KASEKIFYV], for which, in assay [1], the binding result is reported as “binds”.

B1: tyrosinase207-215, FLPWHRLFL (peptide)
peptide: FLPWHRLFL
notes: Synthetic 9-mer from tyrosinase; also called Tyr 207-215
On to B1, for which the binding result in assay [2] is “binds”.

B2: tyrosinase208-216, LPWHRLFLL (peptide)
peptide: LPWHRLFLL
notes: Synthetic 9-mer from tyrosinase; also called Tyr 208-216
On to B2, for which the binding result in assay [3] was “binds”.

B3: PSMA663-671 (SEQ ID NO. 66) (peptide)
peptide: MMNDQLMFL
notes: Synthetic 9-mer from prostate specific membrane antigen
B3: in assay [4], the binding result is “binds”.
